Reference: patent US20150192588A1 (SAMSUNG ELECTRONICS, published 2015)

Biological target: T1, human c-Met/Fc fusion protein (R&D Systems) (human, UniProt P08581 25-932)
T1 construct: Bought reagent, coated on the ELISA plate at 2 ug/mL; also called human c-Met/Fc protein; not shown: Fc part of the bought fusion protein
Experiment: ELISA, human c-Met/Fc coated at 2 ug/mL, hybridoma culture supernatant, anti-mouse IgG-HRP
Procedure: Human c-Met/Fc fusion protein was seeded in an amount of 50 μL (2 μg/mL)/well to microtiter plates and allowed to adhere to the surface of each well. The antibody that remained unbound was removed by washing.
The hybridoma cell culture obtained in Reference Example 1.1.2 was added in an amount of 50 μL to each well of the plates and incubated for 1 hour. The cells remaining unreacted were washed out with a sufficient amount of Tris-buffered saline and Tween 20 (TBST). Goat anti-mouse IgG-horseradish peroxidase (HRP) was added to the plates and incubated for 1 hour at room temperature. The plates were washed with a sufficient amount of TBST, followed by reacting the peroxidase with a substrate (OPD). Absorbance at 450 nm was measured on an ELISA reader.

T1 sequence (P08581 25-932 limits assumed): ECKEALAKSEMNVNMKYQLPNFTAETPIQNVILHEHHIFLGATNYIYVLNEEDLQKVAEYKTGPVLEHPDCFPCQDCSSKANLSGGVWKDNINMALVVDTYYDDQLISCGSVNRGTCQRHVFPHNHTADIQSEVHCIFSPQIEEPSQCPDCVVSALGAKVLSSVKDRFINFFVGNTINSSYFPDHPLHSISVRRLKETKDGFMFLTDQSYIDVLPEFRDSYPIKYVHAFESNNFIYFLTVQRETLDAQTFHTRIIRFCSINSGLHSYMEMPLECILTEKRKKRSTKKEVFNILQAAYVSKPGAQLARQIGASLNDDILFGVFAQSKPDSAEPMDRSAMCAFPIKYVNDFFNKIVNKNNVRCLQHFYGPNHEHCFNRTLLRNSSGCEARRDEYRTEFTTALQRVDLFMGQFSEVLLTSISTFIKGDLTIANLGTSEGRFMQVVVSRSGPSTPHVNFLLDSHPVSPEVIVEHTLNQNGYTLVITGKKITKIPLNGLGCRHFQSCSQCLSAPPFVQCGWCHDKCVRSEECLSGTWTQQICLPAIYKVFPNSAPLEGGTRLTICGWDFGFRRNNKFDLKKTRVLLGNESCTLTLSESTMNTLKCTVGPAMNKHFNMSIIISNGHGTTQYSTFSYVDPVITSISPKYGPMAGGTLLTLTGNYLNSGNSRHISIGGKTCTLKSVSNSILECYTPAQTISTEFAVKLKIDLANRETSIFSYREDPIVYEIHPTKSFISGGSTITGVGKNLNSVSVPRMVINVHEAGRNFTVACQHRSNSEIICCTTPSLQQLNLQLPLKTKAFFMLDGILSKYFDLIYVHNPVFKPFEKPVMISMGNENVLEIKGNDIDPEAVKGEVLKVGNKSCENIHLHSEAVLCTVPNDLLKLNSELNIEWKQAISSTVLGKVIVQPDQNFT

B1: AbF46, mouse monoclonal antibody to c-Met (hybridoma KCLRF-BP-00220) (antibody, V domains shown)
VH: EVKLVESGGGLVQPGGSLRLSCATSGFTFTDYYMSWVRQPPGKALEWLGFIRNKANGYTTEYSASVKGRFTISRDNSQSILYLQMDTLRAEDSATYYCARDNWFAYWGQGTLVTVSA
VL: DILMTQSPSSLTVSAGEKVTMSCKSSQSLLASGNQNNYLAWHQQKPGRSPKMLIIWASTRVSGVPDRFIGSGSGTDFTLTINSVQAEDLAVYYCQQSYSAPLTFGAGTKLELK
notes: In the screening ELISA it stood as hybridoma culture supernatant; The single clone chosen by this screen produces AbF46; also called mouse antibody AbF46
  binding result: binds
